Biological target: human fibronectin (BD Biosciences) (human, UniProt P02751-8 32-2296, limits assumed)
Assay: solid-phase saturation binding ELISA: coated fibronectin at varying concentrations, soluble integrin at 5 ng/µl, detected with LM609
Method: FIGS. 3A-D. Wells of a 96-well plate were coated with varying concentrations of G⁹¹⁹⁻¹²⁰⁷, G⁹¹⁹⁻¹⁰¹⁸ and G¹⁰¹⁶⁻¹²⁰⁷ (A) or fibronectin (B). αvβ3 integrin (5 ng/μl) was then added to, allowed to bind for 1 h at 37° C., and binding evaluated by ELISA using LM609 followed by a secondary antibody conjugated to alkaline phosphatase. […] is a competition binding curve. Soluble αvβ3 (5 ng/μl) was added to wells coated with G⁹¹⁹⁻¹²⁰⁷ in the presence of increasing concentrations of fibronectin at 37° C. […] In all studies, absorbance was measured at 405 nm. Each of the graphs is representative of at least three separate experiments.
ELISA Assays. Wells of 96-well non-tissue culture treated plates were coated with protein at varying concentrations for 18 h at 4° C. Each well was rinsed three times and blocked with 1% BSA in PBS for 1 h at 37° C. Soluble integrin heterodimers were diluted in binding buffer (25 mM Tris buffer, […], 1 mM MgCl2, 0.5 mM MnCl2, 0.05% BSA, pH 7.5) and added to each well for a final concentration of 5 ng/μl. After incubating for 90 min at 37° C. wells were rinsed three times in binding buffer and appropriate mouse monoclonal anti-integrin antibody was added for 1 h at 37° C. […] Absorbance at 405 nm was measured with a Vmax plate reader (Molecular Devices, Menlo Park, Calif.). Nonspecific binding was determined by the addition of 10 mM EDTA to binding buffer. […]

Sequence of human fibronectin (BD Biosciences) (P02751 other isoform, or with tags, fused parts or gaps limits assumed): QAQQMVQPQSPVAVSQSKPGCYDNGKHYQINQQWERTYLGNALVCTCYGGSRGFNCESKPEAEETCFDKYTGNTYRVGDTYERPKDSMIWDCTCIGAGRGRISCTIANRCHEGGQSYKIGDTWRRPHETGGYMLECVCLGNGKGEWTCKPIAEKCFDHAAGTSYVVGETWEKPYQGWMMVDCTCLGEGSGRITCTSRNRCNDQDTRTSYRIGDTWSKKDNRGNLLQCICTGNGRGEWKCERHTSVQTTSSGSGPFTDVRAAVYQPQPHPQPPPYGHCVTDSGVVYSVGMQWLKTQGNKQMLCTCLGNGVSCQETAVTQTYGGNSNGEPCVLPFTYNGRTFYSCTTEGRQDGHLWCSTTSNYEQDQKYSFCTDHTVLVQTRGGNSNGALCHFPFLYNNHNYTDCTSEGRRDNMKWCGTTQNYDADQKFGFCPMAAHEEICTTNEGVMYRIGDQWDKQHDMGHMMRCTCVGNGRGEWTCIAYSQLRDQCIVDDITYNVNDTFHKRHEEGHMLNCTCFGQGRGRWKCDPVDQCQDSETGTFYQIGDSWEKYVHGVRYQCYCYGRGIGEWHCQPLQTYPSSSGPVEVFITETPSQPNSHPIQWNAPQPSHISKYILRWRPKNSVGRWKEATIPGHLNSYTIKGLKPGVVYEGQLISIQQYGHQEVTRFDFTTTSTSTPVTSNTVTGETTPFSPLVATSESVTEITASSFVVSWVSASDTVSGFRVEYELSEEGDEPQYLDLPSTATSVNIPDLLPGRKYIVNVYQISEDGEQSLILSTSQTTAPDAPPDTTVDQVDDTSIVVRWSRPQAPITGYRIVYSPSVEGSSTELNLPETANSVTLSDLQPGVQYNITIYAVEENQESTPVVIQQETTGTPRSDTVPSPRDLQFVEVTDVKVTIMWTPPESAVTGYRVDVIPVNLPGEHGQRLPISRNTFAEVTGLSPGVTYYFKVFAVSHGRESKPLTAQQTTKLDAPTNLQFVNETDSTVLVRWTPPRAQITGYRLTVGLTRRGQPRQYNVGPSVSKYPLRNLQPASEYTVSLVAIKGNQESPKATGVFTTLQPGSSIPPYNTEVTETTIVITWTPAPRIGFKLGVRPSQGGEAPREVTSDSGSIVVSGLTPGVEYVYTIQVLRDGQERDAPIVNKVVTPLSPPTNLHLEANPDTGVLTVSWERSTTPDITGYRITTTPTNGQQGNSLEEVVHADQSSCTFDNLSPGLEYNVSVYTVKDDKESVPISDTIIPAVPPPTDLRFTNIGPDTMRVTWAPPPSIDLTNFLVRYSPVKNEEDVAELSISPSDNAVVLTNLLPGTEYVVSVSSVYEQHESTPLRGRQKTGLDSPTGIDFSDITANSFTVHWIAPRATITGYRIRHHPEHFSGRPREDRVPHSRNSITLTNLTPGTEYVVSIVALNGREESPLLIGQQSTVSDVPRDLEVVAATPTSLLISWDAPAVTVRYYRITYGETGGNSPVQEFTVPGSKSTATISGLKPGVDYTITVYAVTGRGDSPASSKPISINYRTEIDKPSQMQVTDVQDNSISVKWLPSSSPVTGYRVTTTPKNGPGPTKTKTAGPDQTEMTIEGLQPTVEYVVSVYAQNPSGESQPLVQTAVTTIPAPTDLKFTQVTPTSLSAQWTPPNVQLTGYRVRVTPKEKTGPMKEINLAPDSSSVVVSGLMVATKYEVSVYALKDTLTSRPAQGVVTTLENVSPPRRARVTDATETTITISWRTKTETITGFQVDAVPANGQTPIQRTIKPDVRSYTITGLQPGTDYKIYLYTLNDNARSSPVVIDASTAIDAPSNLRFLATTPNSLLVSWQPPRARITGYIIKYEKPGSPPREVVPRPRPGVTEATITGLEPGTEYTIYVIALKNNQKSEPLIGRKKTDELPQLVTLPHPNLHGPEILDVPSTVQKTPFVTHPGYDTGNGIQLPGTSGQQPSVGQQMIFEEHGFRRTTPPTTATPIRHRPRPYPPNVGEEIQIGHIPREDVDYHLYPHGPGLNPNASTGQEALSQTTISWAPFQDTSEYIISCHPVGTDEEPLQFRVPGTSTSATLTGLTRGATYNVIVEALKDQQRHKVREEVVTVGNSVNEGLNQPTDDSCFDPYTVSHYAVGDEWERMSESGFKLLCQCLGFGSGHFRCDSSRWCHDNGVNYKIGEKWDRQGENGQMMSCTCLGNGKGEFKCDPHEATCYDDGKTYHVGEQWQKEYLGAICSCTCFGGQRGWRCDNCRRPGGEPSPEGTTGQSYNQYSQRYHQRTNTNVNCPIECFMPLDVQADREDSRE

B1: soluble αvβ3 integrin heterodimer (Chemicon International) (receptor)
chain 1: FNLDVDSPAEYSGPEGSYFGFAVDFFVPSASSRMFLLVGAPKANTTQPGIVEGGQVLKCDWSSTRRCQPIEFDATGNRDYAKDDPLEFKSHQWFGASVRSKQDKILACAPLYHWRTEMKQEREPVGTCFLQDGTKTVEYAPCRSQDIDADGQGFCQGGFSIDFTKADRVLLGGPGSFYWQGQLISDQVAEIVSKYDPNVYSIKYNNQLATRTAQAIFDDSYLGYSVAVGDFNGDGIDDFVSGVPRAARTLGMVYIYDGKNMSSLYNFTGEQMAAYFGFSVAATDINGDDYADVFIGAPLFMDRGSDGKLQEVGQVSVSLQRASGDFQTTKLNGFEVFARFGSAIAPLGDLDQDGFNDIAIAAPYGGEDKKGIVYIFNGRSTGLNAVPSQILEGQWAARSMPPSFGYSMKGATDIDKNGYPDLIVGAFGVDRAILYRARPVITVNAGLEVYPSILNQDNKTCSLPGTALKVSCFNVRFCLKADGKGVLPRKLNFQVELLLDKLKQKGAIRRALFLYSRSPSHSKNMTISRGGLMQCEELIAYLRDESEFRDKLTPITIFMEYRLDYRTAADTTGLQPILNQFTPANISRQAHILLDCGEDNVCKPKLEVSVDSDQKKIYIGDDNPLTLIVKAQNQGEGAYEAELIVSIPLQADFIGVVRNNEALARLSCAFKTENQTRQVVCDLGNPMKAGTQLLAGLRFSVHQQSEMDTSVKFDLQIQSSNLFDKVSPVVSHKVDLAVLAAVEIRGVSSPDHVFLPIPNWEHKENPETEEDVGPVVQHIYELRNNGPSSFSKAMLHLQWPYKYNNNTLLYILHYDIDGPMNCTSDMEINPLRIKISSLQTTEKNDTVAGQGERDHLITKRDLALSEGDIHTLGCGVAQCLKIVCQVGRLDRGKSAILYVKSLLWTETFMNKENQNHSYSLKSSASFNVIEFPYKNLPIEDITNSTLVTTNVTWGIQPAPMPV
chain 2: GPNICTTRGVSSCQQCLAVSPMCAWCSDEALPLGSPRCDLKENLLKDNCAPESIEFPVSEARVLEDRPLSDKGSGDSSQVTQVSPQRIALRLRPDDSKNFSIQVRQVEDYPVDIYYLMDLSYSMKDDLWSIQNLGTKLATQMRKLTSNLRIGFGAFVDKPVSPYMYISPPEALENPCYDMKTTCLPMFGYKHVLTLTDQVTRFNEEVKKQSVSRNRDAPEGGFDAIMQATVCDEKIGWRNDASHLLVFTTDAKTHIALDGRLAGIVQPNDGQCHVGSDNHYSASTTMDYPSLGLMTEKLSQKNINLIFAVTENVVNLYQNYSELIPGTTVGVLSMDSSNVLQLIVDAYGKIRSKVELEVRDLPEELSLSFNATCLNNEVIPGLKSCMGLKIGDTVSFSIEAKVRGCPQEKEKSFTIKPVGFKDSLIVQVTFDCDCACQAQAEPNSHRCNNGNGTFECGVCRCGPGWLGSQCECSEEDYRPSQQDECSPREGQPVCSQRGECLCGQCVCHSSDFGKITGKYCECDDFSCVRYKGEMCSGHGQCSCGDCLCDSDWTGYYCNCTTRTDTCMSSNGLLCSGRGKCECGSCVCIQPGSYGDTCEKCPTCPDACTFKKECVECKKFDRGALHDENTCNRYCRDEIESVKELKDTGKDAVNCTYKNEDDCVVRFQYYEDSSGKSILYVVEEPECPKGPD
notes: Bought
Kd: 15 nM
